This is an account of results in patent US20060134719A1, “Novel serine protease” (priority 2002, published 2006).

What all share (format): biochemical
In experiment [1] the target is T1, purified signal-FLAG-ARS-extracellular enzyme after the treatment with trypsin beads (Homo sapiens, UniProt Q7Z410, INS90FVSSFQKTELEASCVGCSVLNYRDGNSSVLVHFQ).
T1 construct: FLAG (N); made in house; host or cells: HEK293-EBNA
T1 sequence (Q7Z410 with tags, fused parts or gaps): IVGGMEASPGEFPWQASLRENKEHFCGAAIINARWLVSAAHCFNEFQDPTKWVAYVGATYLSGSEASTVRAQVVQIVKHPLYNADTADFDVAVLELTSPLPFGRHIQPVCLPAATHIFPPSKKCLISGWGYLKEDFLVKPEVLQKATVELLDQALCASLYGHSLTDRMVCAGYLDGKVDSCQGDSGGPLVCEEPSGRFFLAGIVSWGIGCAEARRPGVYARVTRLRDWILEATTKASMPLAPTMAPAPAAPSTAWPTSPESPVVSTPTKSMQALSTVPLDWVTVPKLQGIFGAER
T1 sequence (Q7Z410 with tags, fused parts or gaps INS90FVSSFQKTELEASCVGCSVLNYRDGNSSVLVHFQ): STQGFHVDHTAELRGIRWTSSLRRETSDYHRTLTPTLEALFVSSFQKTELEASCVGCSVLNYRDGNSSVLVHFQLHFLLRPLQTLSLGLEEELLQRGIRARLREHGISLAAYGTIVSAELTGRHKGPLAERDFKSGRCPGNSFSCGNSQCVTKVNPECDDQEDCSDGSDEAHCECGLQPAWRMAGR
Description: Detection of enzyme activity using physiologically active peptides (HPLC). The following applies: peptide 0.1 mM in 100 mM ammonium hydrogen carbonate pH 8, 37° C. for 16 hours; versus buffer control. How it is done:
The purified signal-FLAG-ARS-extracellular enzyme after the treatment with trypsin beads in the same manner as in the method of Example 9 was used as an enzyme sample and was mixed with the following physiologically active peptides for reaction at 37° C. for 16 hours, to detect the enzyme activity. As a control without addition of enzyme, an ammonium hydrogen carbonate buffer was used. The peptides were adjusted to 0.1 mM in 100 mM ammonium hydrogen carbonate solution of pH 8. The peptides used were adenocorticotropic hormone (ACTH), angiotensin 1-13, angiotensin 1-14, angiotensin 1-7, angiotensin 1-9, angiotensin 3-7, angiotensin 3-8, angiotensin I, angiotensin II, angiotensin III, A-type natriuretic peptide (ANP), apelin 13, apelin 36, big gastrin, B-type natriuretic peptide 32 (BNP 32), bradykinin, benzoyl-Gly-His-Leu, chymostatin, C-type natriuretic peptide 22 (CNP 22), arginine-deficient bradykinin (Des-Arg-bradykinin), leucine-terminal enkephalin (Leu-enkephalin), methionine-terminal enkephalin (Met-enkephalin), growth hormone (GH), gastric inhibitory peptide (GIP), glucagon-like peptide 1 (GLP-1), glucagon-like peptide 2 (GLP-2), glucagon, growth hormone releasing factor (GRF), insulin, luteinizing hormone releasing hormone (LH-RH), melanin-concentrating hormone (MCH), α-melanocyte stimulating hormone (α-MSH), motilin, neurotensin, neuropeptide Y (NPY), oxytosin, pituitary adenylate cyclase activating polypeptide 38 (PACAP38), prolactin-releasing peptide (PrRP31), pyroglutamic apelin 13 (Pyr-apelin 13), secretin, somatostatin, substance P, [D-Argl, D-Pro2,D-Trp7,9, Leul1]-substance P, [D-Pro2,D-Trp7,9]-substance P, urotensin II, or vasoactive intestinal peptide (VIP) (all from Peptide Institute, Inc.). The cleavage of the substrate peptides was confirmed by analyzing and comparing the reaction of a sample with the enzyme solution to with that of a sample with added ammonium hydrogen carbonate buffer instead of the enzyme, by high-performance liquid chromatography (HPLC) (LC-10AS manufactured by Shimadzu Co., Ltd.).
TSK-gel ODS-80 Ts column, manufactured by TOSOH
Column temperature: 40° C.
Measurement wavelength: 220 nm
Compositions of solvent solutions
Solution A: 10 mM potassium dihydrogen phosphate buffer, pH 7.4 to 8.0
Solution B: mixture solution of 90% acetonitrile: 10% ultra-pure water

The target in experiment [2] is T2, enzyme solution treated with trypsin beads (purified signal-FLAG-ARS-extracellular protein) (Homo sapiens, UniProt Q7Z410, INS90FVSSFQKTELEASCVGCSVLNYRDGNSSVLVHFQ).
T2 construct: FLAG (N); made in house; host or cells: HEK293-EBNA
T2 sequence (Q7Z410 with tags, fused parts or gaps): T1 sequence (Q7Z410 with tags, fused parts or gaps)
T2 sequence (Q7Z410 with tags, fused parts or gaps INS90FVSSFQKTELEASCVGCSVLNYRDGNSSVLVHFQ): T1 sequence (Q7Z410 with tags, fused parts or gaps INS90FVSSFQKTELEASCVGCSVLNYRDGNSSVLVHFQ)
Description: Substrate cleavage activity of purified protein solution treated with trypsin beads. Particulars: substrate 400 μM, ammonium hydrogen carbonate buffer, 37° C. for one hour. As for the experimental part: By the same method as in Example 9, an enzyme solution treated with trypsin beads was obtained, using the purified protein solution. Then, the substrate cleavage activity of the enzyme solution was measured by the same method as in Example 8. Specifically, synthetic peptide substrates were diluted in ammonium hydrogen carbonate buffer to become a final concentration of 400 μM in a 96-well plate. After the enzyme solution described above was mixed into the resulting diluted substrates, the mixture were incubated at 37° C. for one hour. Subsequently, the fluorescence of AMC released from the synthetic peptide by enzymatic cleavage were measured.

For experiment [3], the target named is T3, purified protein solution (signal-FLAG-ARS-extracellular protein) (Homo sapiens, UniProt Q7Z410, INS90FVSSFQKTELEASCVGCSVLNYRDGNSSVLVHFQ).
T3 construct: made in house; host or cells: HEK293-EBNA
T3 sequence (Q7Z410 with tags, fused parts or gaps INS90FVSSFQKTELEASCVGCSVLNYRDGNSSVLVHFQ): T1 sequence (Q7Z410 with tags, fused parts or gaps INS90FVSSFQKTELEASCVGCSVLNYRDGNSSVLVHFQ)
T3 sequence (Q7Z410 with tags, fused parts or gaps): T1 sequence (Q7Z410 with tags, fused parts or gaps)
Description: Enzyme activity of purified recombinant protein using synthetic peptides. The following applies: substrate 200 μM or 400 μM, ammonium hydrogen carbonate buffer, 37° C. for one hour; versus buffer control. How it is done:
Using a cell expressing the signal-FLAG-ARS-extracellular protein, a recombinant protein secreted into the liquid culture of the cell was extracted and purified. Specifically, the transfected HEK293EBNA cells were incubated by the same method as in Example 7 to about 80% confluence, from which the culture medium was then removed. Instead, a culture medium containing 4% serum was added, for further incubation under conditions of 37° C. and a carbon dioxide concentration of 5% for another 4 days. The culture supernatant was recovered 4 days later; filtered through a 0.22-μm filter (Zartor); and adsorbed on an ANTI-FLAG M2-AGAROSE AFFINITY GEL (Sigma) column equilibrated with TBS buffer by a routine method. Subsequently, about 50 ml of the TBS buffer was used for washing the column. Then, 6 ml of […] glycine hydrochloride solution of pH 2.2 was passed through the column to obtain each 1 ml fraction. To the separated fractions, 100 μl of 1 M Tris-HCl of pH 8 was immediately added to adjust the pH. The individual fractions thus obtained were confirmed by Western blotting using an antibody against the FLAG tag added to the N terminus (mouse anti-FLAG monoclonal antibody M2; Sigma). Specifically, the eluted fractions were electrophoresed on SDS/4% to 20% acrylamide gel (Daiichi Pure Chemicals Co., Ltd.) (under reducing conditions) and then transferred on PVDF membrane (Millipore) using a blotting apparatus. After adding Block Ace (DAINIPPON PHARMACEUTICAL CO., LTD.) for blocking to the transferred PVDF membrane, a biotinylated mouse anti-FLAG monoclonal antibody (M2; Sigma) and horseradish peroxidase-labeled streptoavidin (Amersham Pharmacia) were sequentially reacted. After reaction, it was confirmed that which eluted fractions contained the protein, using ECL Western blotting detection system (Amersham Pharmacia).
Using a synthetic peptides which have the C terminus labeled wit MCA (4-methyl-coumaryl-7-amide) by the same method as in Example 8, the cleavage activity of the enzyme purified in Example 10 was detected. Unless otherwise described, the method described in a paper (Yasuoka, S. et al., Am. J. Respir. Cell Mol Biol., Vol. 16, 300-308, 1997) was used. Specifically, using a synthetic peptides (Peptide Institute, Inc.) which have the C terminus labeled with MCA as substrates, the substrates were diluted with ammonium hydrogen carbonate buffer to become a final concentration of 200 μM or 400 μM in a 96-well plate. After the purified protein solution obtained in Example 10 or the ammonium hydrogen carbonate buffer as a control was added to the substrate solutions, the resulting mixtures were incubated at 37° C. for one hour. Subsequently, the fluorescence of AMC (7-amino-4-methyl-coumarin) released from the synthetic peptide by enzymatic cleavage was measured at a wavelength of 460 nm for measurement, using an excitation wavelength of 390 nm with a fluorescent plate reader (SAFIRE manufactured by TECAN). In FIG. 1, the open bar expresses buffer control, while the solid bar expresses the case of using purified protein solution. The first bar represents the case of using Boc-Glu(OBzl)-Ala-Arg-MCA as a substrate; the second bar represents the case of using Boc-Phe-Ser-Arg-MCA as a substrate; the third bar represents the case of using Boc-Leu-Ser-Thr-Arg-MCA as a substrate; the fourth bar represents the case of using Boc-Gln-Arg-Arg-MCA as a substrate; the fifth bar represents the case of using Suc-Ala-Ala-Pro-Phe-MCA as a substrate; the sixth bar represents the case of using Suc-Ala-Pro-Ala-MCA as a substrate; the seventh bar represents the case of using Boc-Glu-Lys-Lys-MCA as a substrate; the eighth bar represents the case of using Boc-Leu-Lys-Arg-MCA as a substrate; the ninth bar represents the case of using Boc-Leu-Gly-Arg-MCA as a substrate; and the tenth bar represents the case of using Boc-Asp(OBzl)-Pro-Arg-MCA as a substrate.

*: point of attachment. AMC = Cc1cc(=O)oc2cc(N*)ccc12; Boc = CC(C)(C)OC(=O)*; OBn = c1ccc(CO*)cc1

Turning to “α-melanocyte stimulating hormone [α-MSH]”, the “cleavage of physiologically active peptide by enzyme sample (HPLC)” value in experiment [1] is listed as “selectively cleaved”.
Same read-out and setting: as for neuropeptide Y [NPY], the entry is “selectively cleaved”.
Consider Boc-Asp(OBn)-Pro-Arg-{AMC}, for which, in experiment [2], the “cleavage of synthetic peptide by enzyme solution treated with trypsin beads (fluorescence of released AMC)” value is given as “cleaved”. Also, the “cleavage of synthetic peptide by purified protein solution (fluorescence of released AMC)” value in experiment [3] was “cleaved”.
Boc-Leu-Lys-Arg-{AMC}: the “cleavage of synthetic peptide by enzyme solution treated with trypsin beads (fluorescence of released AMC)” value in experiment [2] is “cleaved”. For the same substance, the “cleavage of synthetic peptide by purified protein solution (fluorescence of released AMC)” value in experiment [3] was “cleaved”.
Consider vasoactive intestinal peptide [VIP], for which the “cleavage of physiologically active peptide by enzyme sample (HPLC)” value in experiment [1] is reported as “selectively cleaved”.
Still for that read-out and setting: as for C-type natriuretic peptide 22 [CNP], the entry is “selectively cleaved”.
With “Boc-Leu-Ser-Thr-Arg-MCA (Boc-LSTR-{AMC}; SMILES Cc1cc(=O)oc2cc(NC(=O)[C@H](CCCNC(=N)N)NC(=O)[C@@H](NC(=O)[C@H](CO)NC(=O)[C@H](CC(C)C)NC(=O)OC(C)(C)C)[C@@H](C)O)ccc12) [synthetic peptide substrate labeled with MCA at the C terminus]”, in experiment [2], the “cleavage of synthetic peptide by enzyme solution treated with trypsin beads (fluorescence of released AMC)” value was “cleaved”. In addition, the “cleavage of synthetic peptide by purified protein solution (fluorescence of released AMC)” value in experiment [3] is listed as “cleaved”.
Regarding Boc-Glu-Lys-Lys-{AMC}, the “cleavage of synthetic peptide by enzyme solution treated with trypsin beads (fluorescence of released AMC)” value in experiment [2] is on record as “cleaved”. In addition, the “cleavage of synthetic peptide by purified protein solution (fluorescence of released AMC)” value in experiment [3] is “cleaved”.
For the substance Boc-Leu-Gly-Arg-{AMC}, the “cleavage of synthetic peptide by enzyme solution treated with trypsin beads (fluorescence of released AMC)” value in experiment [2] is on record as “cleaved”. Besides, the “cleavage of synthetic peptide by purified protein solution (fluorescence of released AMC)” value in experiment [3] is on record as “cleaved”.
With melanin-concentrating hormone [MCH], in experiment [1], the “cleavage of physiologically active peptide by enzyme sample (HPLC)” value is reported as “selectively cleaved”.
The same measure, in the same setting: as for A-type natriuretic peptide [ANP], the entry is “selectively cleaved”.
